Assay results from patent US20250076311A1 (Chugai, published 2025).
Where a chain is given by its changes, count along the chain named. Names may count otherwise. Each block holds one binder with its values, some of them ahead of it.

Assays:
[1] = molecular target: T1, human FcγRIIb extracellular domain with C-terminal His-tag (human, UniProt P31994 43-217); experiment: SPR (Biacore), KD of SG1 / KD of variant
T1 construct: also called human FcgRIIb
T1 sequence: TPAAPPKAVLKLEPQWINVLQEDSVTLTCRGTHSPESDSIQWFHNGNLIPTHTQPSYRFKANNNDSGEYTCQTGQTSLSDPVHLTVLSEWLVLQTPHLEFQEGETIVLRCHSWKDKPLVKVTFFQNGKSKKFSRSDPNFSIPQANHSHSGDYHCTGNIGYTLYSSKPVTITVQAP

[2] = molecular target: T2, human FcγRIIaH extracellular domain with C-terminal His-tag (human, UniProt P12318 34-217); experiment: SPR (Biacore), antibody captured, FcgR analyte
T2 construct: also called human FcgRIIaH; FcγRIIa (type H)
T2 sequence: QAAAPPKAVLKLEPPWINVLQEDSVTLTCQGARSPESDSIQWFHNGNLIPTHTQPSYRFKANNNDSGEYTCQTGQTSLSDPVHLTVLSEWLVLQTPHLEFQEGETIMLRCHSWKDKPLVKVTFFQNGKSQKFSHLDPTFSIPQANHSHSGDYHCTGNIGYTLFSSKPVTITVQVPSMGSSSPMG

[3] = molecular target: T3, cynomolgus monkey FcγRIIa1 extracellular domain, His-tagged (cynomolgus monkey); experiment: SPR (Biacore), 25C, KD of SG1 / KD of variant
T3 construct: also called cyno FcgRIIa1
T3 chain: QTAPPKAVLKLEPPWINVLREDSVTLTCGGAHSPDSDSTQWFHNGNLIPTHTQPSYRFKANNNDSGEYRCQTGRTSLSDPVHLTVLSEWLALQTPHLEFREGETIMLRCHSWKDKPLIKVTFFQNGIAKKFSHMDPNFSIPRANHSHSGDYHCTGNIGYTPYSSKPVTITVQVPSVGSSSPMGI

[4] = molecular target: T4, cynomolgus monkey FcγRIIa2 extracellular domain, His-tagged (cynomolgus monkey); experiment: SPR (Biacore), 25C, KD of SG1 / KD of variant
T4 construct: also called cyno FcgRIIa2
T4 chain: T3 chain with P95T, T121A, I127K, A128S, K130N, D135N, R142Q

[5] = molecular target: T5, cynomolgus monkey FcγRIIa3 extracellular domain, His-tagged (cynomolgus monkey); experiment: SPR (Biacore), 25C, KD of SG1 / KD of variant
T5 construct: also called cyno FcgRIIa3
T5 chain: T3 chain with P95T, T121A, A128S, H133P, D135N

[6] = molecular target: T6, cynomolgus monkey FcγRIIb extracellular domain, His-tagged (cynomolgus monkey); experiment: SPR (Biacore), 25C, KD of SG1 / KD of variant
T6 construct: also called cyno FcgRIIb
T6 chain: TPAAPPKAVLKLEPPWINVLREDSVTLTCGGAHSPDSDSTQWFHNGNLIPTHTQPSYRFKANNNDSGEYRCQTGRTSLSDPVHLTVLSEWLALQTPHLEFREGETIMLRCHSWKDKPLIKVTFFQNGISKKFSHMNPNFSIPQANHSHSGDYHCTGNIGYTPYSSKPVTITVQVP

[7] = molecular target: T7, cynomolgus monkey FcγRIIIaS extracellular domain, His-tagged (cynomolgus monkey, UniProt Q8SPW2 21-206 at identity 1.00)); experiment: SPR (Biacore), 25C, KD of SG1 / KD of variant
T7 construct: also called cyno FcgRIIIaS
T7 chain: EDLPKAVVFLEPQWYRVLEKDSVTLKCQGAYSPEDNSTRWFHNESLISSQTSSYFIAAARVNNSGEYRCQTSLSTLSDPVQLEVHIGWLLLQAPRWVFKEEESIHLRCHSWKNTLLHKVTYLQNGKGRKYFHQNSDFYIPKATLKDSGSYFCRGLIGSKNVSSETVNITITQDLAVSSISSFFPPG

[8] = molecular target: T8, human FcγRIIaH extracellular domain, His-tagged (human, UniProt P12318 34-217); experiment: SPR (Biacore), 25C, KD of SG1 / KD of variant
T8 construct: also called human FcgRIIaH; FcγRIIa type H
T8 sequence: T2 sequence

[9] = molecular target: T9, human FcγRIIaR extracellular domain, His-tagged (human, UniProt P12318 34-217); experiment: SPR (Biacore), 25C, KD of SG1 / KD of variant
T9 construct: also called human FcgRIIaR; FcγRIIa type R
T9 chain: T2 sequence with H134R

[10] = molecular target: T10, human FcγRIIb extracellular domain, His-tagged (human, UniProt P31994 43-217); experiment: SPR (Biacore), 25C, KD of SG1 / KD of variant
T10 construct: also called human FcgRIIb
T10 sequence: T1 sequence

[11] = molecular target: T11, human FcγRIIIaV extracellular domain, His-tagged (human, UniProt P08637 17-208); experiment: SPR (Biacore), 25C, KD of SG1 / KD of variant
T11 construct: also called human FcgRIIIaV
T11 sequence (P08637 17-208 F176V): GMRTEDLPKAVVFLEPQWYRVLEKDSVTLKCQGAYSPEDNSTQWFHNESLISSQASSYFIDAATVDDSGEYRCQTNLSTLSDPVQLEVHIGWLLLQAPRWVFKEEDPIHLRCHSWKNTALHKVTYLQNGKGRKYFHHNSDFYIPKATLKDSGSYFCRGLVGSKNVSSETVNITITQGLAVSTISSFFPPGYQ

[12] = molecular target: T3, cynomolgus monkey FcγRIIa1 …; experiment: SPR (Biacore), 25C, FcgR bound per antibody captured
Protocol: (§1) In the next step, cross-reactivity of these substitutions to cynoFcγRs was evaluated.
(§2) The value of the amount of FcγR binding was obtained by dividing the amount of FcγR bound by the amount of each antibody captured.

[13] = molecular target: T4, cynomolgus monkey FcγRIIa2 …; experiment: as above
Protocol: as §1, §2

[14] = molecular target: T5, cynomolgus monkey FcγRIIa3 …; experiment: as above
Protocol: as §1, §2

[15] = molecular target: T6, cynomolgus monkey FcγRIIb extracellular …; experiment: as above
Protocol: as §1, §2

[16] = molecular target: T7, cynomolgus monkey FcγRIIIaS …; experiment: as above
Protocol: as §1, §2

[17] = molecular target: T4, cynomolgus monkey FcγRIIa2 …; experiment: SPR (Biacore), 25C, antibody captured, FcgR as analyte
Protocol: (§3) The kinetic analysis of interactions between these antibodies and FcγR was carried out using BIACORE® T200 or BIACORE® 4000 (GE Healthcare). HBS-EP+ (GE Healthcare) was used as the running buffer, and the measurement temperature was set to 25° C. […] After the measurement, the antibody captured on the chip was washed off by allowing reaction with 10 mM glycine-HCl, pH1.5 and 25 mM NaOH so that the chip was regenerated and used repeatedly. The sensorgrams obtained as measurement results were analyzed by the 1:1 Langmuir binding model using the BIACORE® Evaluation Software to calculate the binding rate constant ka (L/mol/s) and dissociation rate constant kd (1/s), and the dissociation constant KD (mol/L) was calculated from these values. […] Regarding such interactions, KD values were calculated using the following 1:1 binding model described in BIACORE® T100 Software Handbook BR1006-48 Edition AE.

[18] = molecular target: T9, human FcγRIIaR extracellular domain, …; experiment: as above
Protocol: as §3

[19] = molecular target: T11, human FcγRIIIaV extracellular domain, …; experiment: as above
Protocol: as §3

[20] = molecular target: T12, human FcγRIIIaV extracellular domain, His-tagged (human, UniProt P08637 17-208); experiment: SPR (BIACORE), antibody captured on chip, FcγR as analyte, 25 C; KD of SG1 divided by KD of the variant
T12 construct: also called human FcγRIIIa (V158 allotype); FcgRIIIaV; not shown: His-tag added to the C-terminus
Protocol: as §3
T12 sequence (P08637 17-208 F176V): as above

[21] = molecular target: T13, cynomolgus monkey FcγRIIa3 extracellular domain with C-terminal His-tag (cynomolgus monkey); experiment: SPR (Biacore), KD of SG1 / KD of variant
T13 construct: also called cyno FcgRIIa3; cynoFcγRIIa3
T13 chain: T3 chain with P95T, T121A, A128S, H133P, D135N

[22] = molecular target: T14, human FcγRIIaR extracellular domain with C-terminal His-tag (human, UniProt P12318 34-217); experiment: SPR (Biacore), KD of SG1 / KD of variant
T14 construct: also called human FcgRIIaR; FcγRIIa (type R)
T14 chain: T2 sequence with H134R

[23] = molecular target: T15, cynomolgus monkey FcγRIIa1 extracellular domain with C-terminal His-tag (cynomolgus monkey); experiment: SPR (Biacore), KD of SG1 divided by KD of variant
T15 construct: also called cyno FcgRIIa1; cynoFcγRIIa1
T15 chain: T3 chain

[24] = molecular target: T16, human FcγRIIb extracellular domain with C-terminal His-tag (human, UniProt P31994 43-217); experiment: SPR (Biacore), KD of SG1 divided by KD of variant
T16 construct: also called human FcgRIIb
T16 sequence: T1 sequence

[25] = molecular target: T15, cynomolgus monkey FcγRIIa1 …; experiment: SPR (Biacore), antibody captured, FcgR as analyte

- KD fold (SG1 = 1) [3]: 1
- KD fold (SG1 = 1) [4]: 1
- KD fold (SG1 = 1) [5]: 1
- KD fold (SG1 = 1) [6]: 1
- KD fold (SG1 = 1) [7]: 1
- KD fold (SG1 = 1) [8]: 1
- KD fold (SG1 = 1) [9]: 1
- KD fold (SG1 = 1) [10]: 1
- KD fold (SG1 = 1) [11]: 1
- Binding to cynoFcgRs (SG1 = 100) [12]: 100
- Binding to cynoFcgRs (SG1 = 100) [13]: 100
- Binding to cynoFcgRs (SG1 = 100) [14]: 100
- Binding to cynoFcgRs (SG1 = 100) [15]: 100
- Binding to cynoFcgRs (SG1 = 100) [16]: 100
- Kd [17]: 52000 nM
- Kd [18]: 14000 nM
- Kd [19]: 1200 nM
B2: MS1032LO06-SG1 (antibody, human IgG1, kappa)
heavy: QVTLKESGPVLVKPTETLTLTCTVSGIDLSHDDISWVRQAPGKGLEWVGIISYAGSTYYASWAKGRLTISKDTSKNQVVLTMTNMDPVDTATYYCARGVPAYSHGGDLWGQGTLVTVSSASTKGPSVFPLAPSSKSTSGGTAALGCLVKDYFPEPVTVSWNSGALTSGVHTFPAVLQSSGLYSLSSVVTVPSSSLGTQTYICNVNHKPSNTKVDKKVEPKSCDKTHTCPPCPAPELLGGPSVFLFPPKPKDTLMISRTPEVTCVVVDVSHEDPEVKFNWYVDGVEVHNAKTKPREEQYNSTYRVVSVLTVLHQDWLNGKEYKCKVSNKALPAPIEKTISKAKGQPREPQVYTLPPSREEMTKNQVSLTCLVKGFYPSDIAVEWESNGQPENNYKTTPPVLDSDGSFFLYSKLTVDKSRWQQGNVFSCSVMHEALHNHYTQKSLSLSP
light: DIVMTQSPATLSLSPGERATLSCTSSQSVYHANWLSWFQQKPGQPPKLLIYWASTLAYGVPSRFSGSGSGTDFTLTISSLQPEDAATYYCAGGYGGGRYAFGQGTKVEIKRTVAAPSVFIFPPSDEQLKSGTASVVCLLNNFYPREAKVQWKVDNALQSGNSQESVTEQDSKDSTYSLSSTLTLSKADYEKHKVYACEVTHQGLSSPVTKSFNRGEC
notes: Heavy constant region SG1, light constant region SK1; also called M103205H795-SG1

- KD fold (SG1 = 1) [21]: 3.5 fold
- KD fold (SG1 = 1) [22]: 2.3 fold
- KD fold (SG1 = 1) [1]: 1.6 fold
B4: M103205H795-MY471/M103202L889-SK1 (antibody)
chain 1: QVTLKESGPVLVKPTETLTLTCTVSGIDLSHDDISWVRQAPGKGLEWVGIISYAGSTYYASWAKGRLTISKDTSKNQVVLTMTNMDPVDTATYYCARGVPAYSHGGDLWGQGTLVTVSSASTKGPSVFPLAPSSKSTSGGTAALGCLVKDYFPEPVTVSWNSGALTSGVHTFPAVLQSSGLYSLSSVVTVPSSSLGTQTYICNVNHKPSNTKVDKKVEPKSCDKTHTCPPCPRPELLTGPSVFLFPPKPKDTLMISRTPEVTCVVVDVSDEDPEVKFNWYVDGVEVHNAKTKPREEQYNSTYRVVSVLTVLHQDWLNGKEYKCKVSNKALPKPIEKTISKAKGQPREPQVYTLPPSREEMTKNQVSLTCLVKGFYPSDIAVEWESNGQPENNYKTTPPVLDSDGSFFLYSKLTVDKSRWQQGNVFSCSVMHEALHNHYTQKSLSLSP
chain 2: B2 light

Further lines, the binder ahead of its results:

B1: M103205H795-MY474/M103202L889-SK1 (antibody)
heavy: B4 chain 1 with R233V
light: B2 light
notes: Substitutions in EU numbering on SG1
- KD fold (SG1 = 1) [1]: 2.9 fold
- Kd [2]: 130 nM

B3: M103205H795-MY318/M103202L889-SK1 (antibody, human IgG1, kappa, name in EU numbering)
heavy: B4 chain 1 with R233A, T238L, D270E, K328T, P398M
light: B2 light
notes: expressed with M103202L889-SK1 as light chain
- KD fold for humanFcgRs (SG1 = 1) [20]: 0.09 fold

B5: M103205H795-MY530 / M103202L889-SK1 (antibody, human IgG1, kappa, name in EU numbering)
heavy: B4 chain 1 with R233A, K328T
light: B2 light
- KD fold (SG1 = 1) [23]: 2.5 fold
- KD fold (SG1 = 1) [24]: 2.9 fold
- Kd [25]: 1300 nM

B6: M103205H795-MY388 (second row so labelled: G236T/S239I/H268D/A330K) / M103202L889-SK1 (antibody, human IgG1, kappa, name in EU numbering)
heavy: B4 chain 1 with R233A, S241I
light: B2 light
notes: The label MY388 is printed for two different variants; also called MY388 (second of two rows with this label)
- KD fold (SG1 = 1) [23]: 1.9 fold
